Our source for the Kd, koff and kon values is patent publication CN111662385A.

The target of the test is human GPC3 recombinant protein (human) (UniProt P51654). In words: BLI (ForteBio), antibody 5 ug/ml on anti-human IgG Fc sensor, GPC3 62.5-1000 nM. Background: In BLI a coated tip is dipped into the sample, and binding shifts an interference pattern.

On to hGC33(Codrituzumab) (antibody), for which the Kd came to 1.74 nM, the koff amounted to 0.00024 s⁻¹ and the kon is 141000 M⁻¹ s⁻¹.

In general, Kd refers to the concentration at which binding is half-saturated. Usually koff stands for the rate constant with which the complex falls apart. The term kon denotes the rate constant with which the complex forms.
